Test results: US20240254227A1 (Alector, published 2024)

T1: human CD300LB on primary human macrophages (human, UniProt A8K4G0 18-201)
T1 sequence: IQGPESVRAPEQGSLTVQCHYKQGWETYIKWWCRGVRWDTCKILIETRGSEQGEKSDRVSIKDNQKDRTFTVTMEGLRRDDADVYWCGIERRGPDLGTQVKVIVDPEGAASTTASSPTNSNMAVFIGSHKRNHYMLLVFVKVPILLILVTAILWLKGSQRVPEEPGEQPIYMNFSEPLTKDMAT

T2: huCD300F constitutively expressed on 293 Freestyle (Freestyle HEK) cells (human, UniProt Q8TDQ1 20-290)
T2 construct: also called huCD300LF; Human CD300F
T2 sequence: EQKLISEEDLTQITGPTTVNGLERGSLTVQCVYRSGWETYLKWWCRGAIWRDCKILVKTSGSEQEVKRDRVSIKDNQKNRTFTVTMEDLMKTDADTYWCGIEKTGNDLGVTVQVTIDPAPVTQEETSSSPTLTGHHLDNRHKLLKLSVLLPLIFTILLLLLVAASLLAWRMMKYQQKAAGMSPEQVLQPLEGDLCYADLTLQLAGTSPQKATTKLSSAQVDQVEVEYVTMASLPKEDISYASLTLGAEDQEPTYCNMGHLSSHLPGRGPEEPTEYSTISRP

T3: recombinant human CD300LB overexpressed on Jurkat cells (human, UniProt A8K4G0 18-201)
T3 construct: also called huCD300LB; huCD300LB-expressing Jurkat cells
T3 sequence: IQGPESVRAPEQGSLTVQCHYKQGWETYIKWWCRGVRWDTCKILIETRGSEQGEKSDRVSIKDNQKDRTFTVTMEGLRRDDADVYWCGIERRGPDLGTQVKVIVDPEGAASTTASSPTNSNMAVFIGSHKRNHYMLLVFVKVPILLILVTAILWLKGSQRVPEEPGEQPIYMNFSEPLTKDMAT

T4: human CD300LB on primary human monocytes (human, UniProt A8K4G0 18-201)
T4 construct: Endogenous protein on primary cells; that the target is CD300LB is inferred from the antibodies being anti-CD300LB antibodies; also called Monocyte donor 1281; Monocyte donor 1282
T4 sequence: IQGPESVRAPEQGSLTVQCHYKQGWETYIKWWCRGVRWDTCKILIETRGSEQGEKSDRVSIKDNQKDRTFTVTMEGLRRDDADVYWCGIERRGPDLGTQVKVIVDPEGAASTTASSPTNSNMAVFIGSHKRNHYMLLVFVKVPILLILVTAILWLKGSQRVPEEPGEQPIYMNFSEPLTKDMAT

T5: human CD300LB transiently expressed on HEK293 cells (human, UniProt A8K4G0 18-201)
T5 construct: CD300LB expression constructs'; also called huCD300LB HEK293
T5 sequence: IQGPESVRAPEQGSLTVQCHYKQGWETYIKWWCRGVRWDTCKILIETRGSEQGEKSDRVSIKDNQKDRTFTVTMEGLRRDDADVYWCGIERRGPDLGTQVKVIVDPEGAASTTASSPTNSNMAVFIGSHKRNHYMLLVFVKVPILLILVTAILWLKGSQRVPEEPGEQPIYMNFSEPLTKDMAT

T6: murine CD300LB stably expressed on Jurkat cells (mouse, UniProt Q3U497 18-209)
T6 construct: also called muCD300LB; mouse CD300LB
T6 sequence: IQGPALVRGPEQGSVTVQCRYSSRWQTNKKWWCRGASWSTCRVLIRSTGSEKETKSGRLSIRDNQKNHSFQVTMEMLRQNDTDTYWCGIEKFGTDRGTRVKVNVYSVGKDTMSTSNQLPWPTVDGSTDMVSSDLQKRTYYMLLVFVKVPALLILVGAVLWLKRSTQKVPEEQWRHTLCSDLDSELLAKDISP


Tests used:
[1] = biological target: T1, human CD300LB on primary human …; test: flow cytometry, primary human macrophages donor 1275, 10 ug/mL antibody, isotype control subtracted
Procedure: (§1) Human monocytes from various donors were isolated from whole blood using RosetteSep Human Monocyte Enrichment Cocktail (Stemcell technologies) and Ficoll centrifugation per manufacturer protocols. After lysing red blood cells with ACK lysing buffer, monocytes were resuspended in complete media (RPMI, 10% FBS, Pen/Strep, L-glutamine, HEPES, non-essential amino acid, Sodium pyruvate). To obtain macrophages from these isolated monocytes, 100 ng/ml human M-CSF and 8% v/v human serum were added to the cells for 5-7 days. Cells were counted on the day of the experiment and plated at 100,000 cells per well in a round-bottom 96 well plate. Cells were incubated with TruStain Fc block and 10 μg/mL antibody for 1 hour on ice before washing with 250 μL ice cold PBS twice. Cells were then incubated with the appropriate APC-conjugated secondary antibodies for 20 minutes in the dark on ice. Finally, cells were washed twice with ice cold FACS buffer and then resuspended in 100 μL FACS buffer containing 1% propidium iodide. Samples were immediately analyzed using a BD FACSCanto flow cytometer. The gMFI was calculated using FlowJo software minus the gMFI of the appropriate isotype control.

[2] = biological target: T2, huCD300F constitutively expressed on …; test: flow cytometry, stable Freestyle HEK cells
Procedure: (§2) Other members of the human CD300 family share sequence homology with human CD300LB. Thus, counter screens against binding of the anti-CD300LB antibodies to huCD300A, huCD300C, huCD300LD, huCD300E, huCD300LF, and huCD300G by stable overexpression in Freestyle HEK cells (generation of which is described above) were performed as follows. Cells were counted and labeled with 200 nM CFSE, 500 nM VioBlue, or a combination of the two to discriminate between CD300LB, Parental cells, and the other CD300 family members. Cells were washed thoroughly with PBS containing 2% fetal bovine serum then resuspended at a total of 240,000 cells per well. Hybridoma supernatants (100 L) or purified antibodies at various concentrations were added and incubated for one hour before the cells were washed twice again and stained with an APC-labeled anti-human or anti-mouse secondary antibody. Cells were then analyzed using a BD FACSCanto II. Anti-CD300LB antibodies were analyzed for specific binding to human CD300LB by FlowJo software by gating on live cells, then the APC geometric mean fluorescence intensity (gMFI) calculated for each labeled population. The results are shown in […]
(§3) Freestyle HEK cells were transfected with huCD300A, huCD300C, huCD300D, huCD300E, and huCD300G separately. Then, five stable cell lines from these transfections were pooled; the combined cells are herein known as CD300A/C/D/E/G. Freestyle HEK cells were also transfected with huCD300LB and huCD300F. All transfected cells were then tested for binding of anti-CD300LB antibodies of the present disclosure.

[3] = biological target: T7, huCD300LB-DAP12 fusion constitutively expressed on 293 Freestyle (Freestyle HEK) cells (human); test: flow cytometry, stable Freestyle HEK cells
T7 construct: also called Human CD300LB-DAP12 chimera
Procedure: as §2, §3
Target sequence in this assay (chain, as listed by the source limits assumed): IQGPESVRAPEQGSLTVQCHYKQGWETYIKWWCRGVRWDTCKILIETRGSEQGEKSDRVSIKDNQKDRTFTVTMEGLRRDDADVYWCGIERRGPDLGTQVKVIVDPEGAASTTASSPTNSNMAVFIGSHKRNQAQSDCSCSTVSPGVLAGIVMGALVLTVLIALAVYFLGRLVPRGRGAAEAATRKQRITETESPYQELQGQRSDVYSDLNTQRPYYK

[4] = biological target: T1, human CD300LB on primary human …; test: flow cytometry, primary human macrophages donor 1277, 10 ug/mL antibody, isotype control subtracted
Procedure: as §1

[5] = biological target: T3, recombinant human CD300LB overexpressed …; test: flow cytometry on Jurkat cells overexpressing huCD300LB, apparent KD (Drake & Klakamp fit)
Procedure: Purified anti-CD300LB antibodies of the present disclosure were evaluated for their binding affinity to either Jurkat cells overexpressing recombinant huCD300LB or BaF/3 cells overexpressing recombinant muCD300LB. Binding of anti-CD300LB antibodies to the cells was determined as follows. Cells were harvested, washed, and labeled with propidium iodide for viability discrimination. After washing the cells with PBS, 1×10⁵ cells were aliquoted per well in 96-well U-bottom plates and incubated with 100 μL of purified anti-CD300LB antibody at various concentrations in FACS buffer (PBS+2% FBS). After this primary incubation, the supernatant was removed via centrifugation, the cells washed twice with 150 μL of ice-cold FACS buffer, and then incubated with the appropriate secondary antibody on ice for 30 minutes. Following the secondary antibody incubation, the cells were again washed twice with ice-cold FACS buffer and resuspended in a final volume of 200 L FACS buffer. Flow cytometry analysis was then performed using the FACSCanto system (BD Biosciences).
To determine affinity, antibodies at increasing concentrations were used to stain Jurkat cells overexpressing huCD300LB and geometric MFI values measured by the flow cytometer were analyzed on Prism (Graphpad) software.

[6] = biological target: T4, human CD300LB on primary human monocytes; test: flow cytometry, primary human monocytes donor 1284, 10 ug/mL antibody, isotype control subtracted
Procedure: as §1

[7] = biological target: T4, human CD300LB on primary human monocytes; test: flow cytometry, primary human monocytes donor 1281, 10 ug/mL antibody, isotype control subtracted
Procedure: as §1

[8] = biological target: T4, human CD300LB on primary human monocytes; test: flow cytometry, primary human monocytes donor 1282, 10 ug/mL antibody, isotype control subtracted
Procedure: as §1

[9] = biological target: T1, human CD300LB on primary human …; test: flow cytometry, primary human macrophages donor 1278, 10 ug/mL antibody, isotype control subtracted
Procedure: as §1

[10] = biological target: T5, human CD300LB transiently expressed on …; test: flow cytometry, transfected HEK293, 10 ug/mL, isotype subtracted
Procedure: In addition, supernatants or purified antibodies were tested for species crossreactivity by comparing the binding of human, mouse, and cynomolgous monkey CD300LB expressing cell lines. HEK293 were transfected with […] of human, mouse, and cyno CD300LB expression constructs using the Mirus system in 10 cm tissue culture dishes. Cells were then incubated for 24 hours in complete medium. Cells were harvested by incubation in TrypLE Express, then washed with PBS and labeled with 200 nM CFSE, 500 nM VioBlue, or a combination of the two to discriminate between human, mouse, and cyno CD300LB expressing cells. Cells were washed thoroughly with PBS containing 2% fetal bovine serum then resuspended at a total of 240,000 cells per well. Purified antibodies at 10 μg/mL were added and incubated for one hour before the cells were washed again and stained with an APC-labeled anti-human or anti-mouse secondary. Cells were then analyzed using a BD FACSCanto II. Antibodies were analyzed for specific binding to human, mouse, or cyno CD300LB by FlowJo software by gating on live cells, then the APC gMFI calculated for each labeled population minus the gMFI of the isotype control.

[11] = biological target: T4, human CD300LB on primary human monocytes; test: flow cytometry, primary human monocytes donor 1283, 10 ug/mL antibody, isotype control subtracted
Procedure: as §1

[12] = biological target: T7, huCD300LB-DAP12 fusion constitutively …; test: flow cytometry, geometric mean (APC-A), FreeStyle HEK cells expressing huCD300LB
Procedure: as §2

[13] = biological target: T3, recombinant human CD300LB overexpressed …; test: flow cytometry, stable Jurkat cells, supernatant or 10 ug/mL, isotype subtracted
Procedure: (§4) Purified anti-CD300LB antibodies of the present disclosure were also evaluated for species cross-reactivity to mouse and human CD300LB stably expressed in Jurkat cells (generation of which is described above). Cells were counted and labeled with 200 nM CFSE, 500 nM VioBlue, or a combination of the two to discriminate between human CD300LB, Parental cells and mouse CD300LB. Cells were washed thoroughly with PBS containing 2% fetal bovine serum then resuspended at a total of 240,000 cells per well. Hybridoma supernatants (100 L) or purified antibodies at 10 μg/mL were added and incubated for one hour before the cells were washed again and stained with an APC-labeled anti-human or anti-mouse secondary. Cells were then analyzed using a BD FACSCanto II. Antibodies were analyzed for binding to mouse or human CD300LB by FlowJo software by gating on live cells, then the APC gMFI calculated for each labeled population by subtraction of the gMFI of the appropriate isotype control.

[14] = biological target: T6, murine CD300LB stably expressed on …; test: as above
Procedure: as §4

[15] = biological target: T6, murine CD300LB stably expressed on …; test: flow cytometry, stable Jurkat cells

| gMFI [1] [gMFI] | binding result [2] | gMFI [2] [gMFI] | gMFI [3] [gMFI] | gMFI [4] [gMFI] | Kd [5] [nM] | gMFI [6] [gMFI] | gMFI [7] [gMFI] | gMFI [8] [gMFI] | gMFI [9] [gMFI] | gMFI [10] [gMFI] | gMFI [11] [gMFI] | binding result [12] | gMFI [13] [gMFI] | gMFI [14] [gMFI] | binding result [15] | Binder |
| --- | --- | --- | --- | --- | --- | --- | --- | --- | --- | --- | --- | --- | --- | --- | --- | --- |
| 19700 | no binding | 28 | 37900 | 15700 | 109 | 1040 | 1370 | 3070 | 13300 | 445 | 2580 |  |  |  |  | anti-CD300LB antibody CD-09 (antibody, V domains shown) VH: QVQLVQSGAEVKKPGASVKVSCKASGYTFTTYAVHWVRQAPGQGLEWMGIINPNSGGTNYAQKFQGRVTMTRDTSTSTVYMELSSLRSEDTAVYYCARDIVPMNNFYNYYYGMDVWGQGTTVTVSS VL: DIQMTQSPSSLSASVGDRVTITCRASQSISSYLNWYQQKPGKAPKLLIYATSTLQSGVPSRFSGSGSGTDFTLTISSLQPEDFATYYCQQSYRIPYTFGQGTKVEIK |
| 3580 | no binding | 212 | 56800 | 2800 | 45 | 1400 | 2970 | 4470 | 135000 | 774 | 1920 |  |  |  |  | anti-CD300LB antibody CD-08 (antibody, V domains shown) VH: EVQLLESGGGLVQPGGSLRLSCAASGFTFSNAWMSWVRQAPGKGLEWVSVISGSGGRTYYADSVKGRFTISRDNSKNTLYLQMNSLRAEDTAVYYCARDGTTVAPKGMDVWGQGTTVTVSS VL: DIQMTQSPSSLSASVGDRVTITCQASQDINNYVNWYQQKPGKAPKLLIYAASNLQSGVPSRFSGSGSGTDFTLTISSLQPEDFATYYCQQSYSPPYTFGQGTKLEIK |
|  |  |  | 190 |  | 32 |  |  |  |  | 207 |  | no binding | 193 | 18 | no binding (tested: 10 ug/mL) | anti-CD300LB antibody CD-04 (antibody, V domains shown) VH: QVQLQQSGAELVRPGASVTLSCRASGYTFTDFEMHWVKQTPLHGLEWIGAIAPETGGTAYNQKFKGKAILTADKSSSTAYVELRSLTSEDSAVYFCTRLGGMDYWGQGTSVTVSS VL: DVVMTQTPLSLPVSLGDQASISCRSSQTLVHNNGNTYLYWYLQKPGQSPKLLIYQVSNRFFGVPDRFSGSGSGTDFTLKISRVEAEDLGLYFCSQSTHVPWTFGGGTKLEIK |
